Data as given in patent US12503479B2, “Phospholipid-flavagline conjugates and methods of using the same for targeted cancer therapy” (Cellectar Biosciences, Inc., priority 2018, dated 2025).
Where two headings read alike, the source gives them in different places.

Legend:
[1] = tested on: normal human dermal fibroblasts (NHDF); assay: Cytotoxicity of parent compound versus PDC, normal cells (Example 8); assay type: cell-based; details: increasing concentrations
Experimental: (§1) A549 (human lung adenocarcinoma) cells and normal human dermal fibroblasts (NHDF) were plated in 96 well dishes overnight. […] The difference between the cytotoxicity of the PDC molecule for tumor cells and that of the normal cells may have indicated a potential to improve the parent molecules therapeutic index.

[2] = tested on: A549 (human lung adenocarcinoma) cells; assay: Cytotoxicity of parent compound versus PDC, tumor cells (Example 8); assay type: cell-based; details: increasing concentrations; for Cytotoxic potency to A549 cells versus NHDF cells (selectivity): FIG. 3
Experimental: as §1

[3] = tested on: NHDF (normal human dermal fibroblasts); assay: cells; assay type: cell-based
[4] = assay type: in vivo, mice
Experimental: Listed in Table 5 are the doses administered to the mice, and how many mice were alive after treatment (“3/3” indicates 3 out of 3 mice were alive). […] MTD for CLR 1865 was between 5 and 10 mg/kg.

[5] = tested on: A549 (human lung adenocarcinoma); assay: cells; assay type: cell-based; details: various concentrations; A549 and NHDF; FIG. 8
A375 and A549 cells = assay: Levels of FLV3 in cell lysate and growth media (LC/MS); assay type: cell-based, human
Experimental: FIG. 11 is a graph of concentration versus time for FLV3 detected in the cytosol (normalized to the cytosolic volume) in A375 (human melanoma) and A549 (human lung adenocarcinoma) cell lines.
The levels of FLV3 in cell lysate and growth media were measured using LC/MS. […] Levels of intracellular FLV3 appeared to plateau at 24 hours, while extracellular levels of FLV3 continued to increase.

[6] = tested on: HCT 116 cells (human colon cancer); assay type: in vivo; design: dose or concentration left out as unconfirmed; details: HCT 116 tumor model; three doses; FIG. 9

Experimental for Plasma stability, human: (§2) A small amount of molecule was exposed to plasma, and the plasma was then analyzed via HPLC or MS to determine if the molecule was degraded.
Experimental for Plasma stability, mouse: as §2

Structure (SMILES) | Cytotoxic effect on NHDF cells [1] | Cytotoxic potency in A549 cells relative to the parent molecule [2] | Cytotoxic potency to A549 cells versus NHDF cells (selectivity) [2] | Mice alive after treatment ([4]; Dose 0.1 mg/kg) | Mice alive after treatment ([4]; Dose 0.25 mg/kg) | Mice alive after treatment ([4]; Dose 0.5 mg/kg) | Mice alive after treatment ([4]; Dose 1.0 mg/kg) | Mice alive after treatment ([4]; Dose 5.0 mg/kg) | Mice alive after treatment ([4]; Dose 10.0 mg/kg) | Tolerability compared to FLV3 alone ([4]; mice) | Human half-life (Plasma stability, human) | Human plasma stability (Plasma stability, human) | Mouse half-life (Plasma stability, mouse; mouse plasma) | also measured
COC(=O)[C@H]1[C@@H](O)[C@@]2(O)c3c(OC)cc(OCCCCNC(=O)OCC(C)(C)SSCCCCCCCCCCCCCCCCCCOP(=O)([O-])OCC[N+](C)(C)C)cc3O[C@@]2(c2ccc(OC)cc2)[C@@H]1c1ccccc1 [CLR 1852] | almost no effect on NHDF cells until the highest concentrations | near similar potency to the parent molecule in A549 cells | selectivity for the A549 cells | 3/3 | 3/3 | 3/3 | 3/3 | 3/3 | 3/3 | excellent improvement in tolerability compared to FLV3 alone | >6.67 h | excellent human plasma stability | >6.67 h | Therapeutic Index (TI) [3]: 360; Therapeutic Index (TI) (value in parentheses) [3]: 915; Maximum tolerated dose (MTD) ([4]; mice): did not achieve a maximum tolerated dose; In vivo therapeutic index ([4]; mouse, in vivo): at least 25; Cytotoxic potency compared to FLV3 alone [5]: modest loss in potency compared to FLV3 alone; Time stable in plasma (Plasma stability, mouse; plasma, species not stated): at least 7 hours; Time at which levels of intracellular FLV3 plateau (A375 and A549 cells): 24 h; Levels of FLV3 in the growth media (A375 and A549 cells; after 24 hours): Moderate levels; Levels of FLV3 in the cell lysate (A375 and A549 cells; after 24 hours, FIG. 11): high levels; Time from which tumor volume was reduced compared to vehicle [6]: around 27 days
COc1ccc([C@@]23Oc4cc(OCCCCNC(=O)OCC(C)(C)SSCCCCCCCCCCCCCCCCCCOP(=O)([O-])OCC[N+](C)(C)C)cc(OC)c4[C@]2(O)[C@H](O)[C@H](C(=O)O)[C@H]3c2ccccc2)cc1 [CLR 1865] | almost no effect on NHDF cells until the highest concentrations | near similar potency to the parent molecule in A549 cells | selectivity for the A549 cells | 3/3 | 3/3 | 3/3 | 3/3 | 3/3 | 2/3 | excellent improvement in tolerability compared to FLV3 alone | >6.67 h | excellent human plasma stability | 3.32 h | Therapeutic Index (TI) (value in parentheses) ([3]; from the NHDF value in parentheses): 37.3; Therapeutic Index (TI) ([3]; not defined, equals NHDF IC50 over lowest tumor line IC50): 11.64; In vivo therapeutic index ([4]; mice): ≥ 12.5; Time stable in mouse plasma (Plasma stability, mouse; mouse plasma): 3.3 h
COc1ccc([C@]23Oc4cc(OCCCCN)cc(OC)c4[C@@]2(O)[C@@H](O)[C@@H](C(=O)O)[C@@H]3c2ccccc2)cc1 [FLV1, reference compound] |  |  | near equal potency to the A549 cells as it did to the NHDF cells |  |  |  |  |  |  |  |  |  |  | 
